The values that follow come from patent US20250388669A1 (published 2025).

One may read the EC50 as the concentration that produces a half-maximal response.

The target of one assay is T1, CD137 (human, UniProt Q07011 24-186).
T1 construct: In the reporter assay it is whole, on GS-H2-huCD137 cells; also called 4-1BB; huCD137
The assay is described as follows: CD137 binding (method not given).

The target in assay [1] is T2, CD40 (human, UniProt P25942 21-193).
T2 construct: In the reporter assay it is whole, on GS-H2-huCD40 cells; also called huCD40
T2 sequence (P25942 21-193 limits assumed): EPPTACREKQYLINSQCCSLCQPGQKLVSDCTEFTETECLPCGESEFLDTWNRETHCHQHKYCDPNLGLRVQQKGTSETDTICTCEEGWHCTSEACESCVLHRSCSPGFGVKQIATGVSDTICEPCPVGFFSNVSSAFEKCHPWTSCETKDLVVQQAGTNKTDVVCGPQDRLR
The assay is described as follows: CD40 binding (method not given).

Assay [2] deals with CD40 (UniProt P25942 21-193, limits assumed). The assay is described as follows: FCM or ELISA, graded.
CD40 (UniProt P25942 21-193, limits assumed), sequence (P25942 21-193 limits assumed): as above
The next assay has as its target T3, B7H3 (UniProt Q5ZPR3 29-466, limits assumed).
T3 sequence (looked up): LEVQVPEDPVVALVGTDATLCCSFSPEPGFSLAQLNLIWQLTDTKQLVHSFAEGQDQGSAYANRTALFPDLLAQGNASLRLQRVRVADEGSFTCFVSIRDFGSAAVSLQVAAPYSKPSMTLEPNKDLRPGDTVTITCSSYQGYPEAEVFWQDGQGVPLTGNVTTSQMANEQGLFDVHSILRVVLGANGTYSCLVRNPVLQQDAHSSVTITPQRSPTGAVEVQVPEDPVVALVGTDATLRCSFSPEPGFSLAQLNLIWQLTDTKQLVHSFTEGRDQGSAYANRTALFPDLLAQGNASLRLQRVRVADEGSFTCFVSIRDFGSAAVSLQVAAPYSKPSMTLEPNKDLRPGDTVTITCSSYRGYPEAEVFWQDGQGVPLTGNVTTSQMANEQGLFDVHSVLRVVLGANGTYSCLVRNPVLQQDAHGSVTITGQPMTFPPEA
The assay is described as follows: FCM or ELISA, graded. Background: In an ELISA, binding on a coated surface is turned into a signal by an enzyme label.

B1: Ly2118 (other)
chain 1: QVQLVQSGAEVKKPGASVKVSCKASGYTFTSYVMHWVRQKPGQGLEWIGYINPYNEGTESTDKFKGRATMTSDKSTSTVYMELSSLRSEDTAVYYCASIYYGYEGTYFGVWGQGTLVTVSSASTKGPSVFPLAPSSKSTSGGTAALGCLVKDYFPEPVTVSWNSGALTSGVHTFPAVLQSSGLYSLSSVVTVPSSSLGTQTYICNVNHKPSNTKVDKKVEPKSCGGGGSGGGGSGGGGSGGGGSQVQLVQSGAEVKKPGASVKVSCKASGYTFAGFEMHWVRQAPGQGLEWMGAIDPKTGGTDYNQKFKDRVTMTRDTSISTAYMELSRLRSDDTAVYYCARDLGYFDVWGQGTLVTVSSGGGGSDKTHTCPPCPAPEAAGPSVFLFPPKPKDTLMISRTPEVTCVVVDVSHEDPEVKFNWYVDGVEVHNAKTKPREEQYNSTYRVVSVLTVLHQDWLNGKEYKCKVSNKALPAPIEKTISKAKGQPREPQVYTLPPSREEMTKNQVSLWCLVKGFYPSDIAVEWESNGQPENNYKTTPPVLDSDGSFFLYSKLTVDKSRWQQGNVFSCSVMHEALHNHYTQKSLSLSPGGGGGSGGGGSGGGGSGGGGSQVTLKESGPALVKPTQTLTLTCTFSGFSLSTSGTCVSWIRQPPGKALEWLATICWEDSKGYNPSLKSRLTISKDTSKNQAVLTMTNMDPVDTATYYCARREDSGYFWFPYWGQGTLVTVSS
chain 2: QVQLVQSGAEVKKPGASVKVSCKASGYTFTSYVMHWVRQKPGQGLEWIGYINPYNEGTESTDKFKGRATMTSDKSTSTVYMELSSLRSEDTAVYYCASIYYGYEGTYFGVWGQGTLVTVSSASTKGPSVFPLAPSSKSTSGGTAALGCLVKDYFPEPVTVSWNSGALTSGVHTFPAVLQSSGLYSLSSVVTVPSSSLGTQTYICNVNHKPSNTKVDKKVEPKSCGGGGSGGGGSGGGGSGGGGSDIQMTQSPSSLSASVGDRVTITCRASQDIRSNLNWYQQKPGGAVKLLIYYTSRLHSGVPSRFSGSGSGTDYTLTISSLQPEDFATYFCQQSEKLPRTFGGGTKVEIRGGGGSDKTHTCPPCPAPEAAGPSVFLFPPKPKDTLMISRTPEVTCVVVDVSHEDPEVKFNWYVDGVEVHNAKTKPREEQYNSTYRVVSVLTVLHQDWLNGKEYKCKVSNKALPAPIEKTISKAKGQPREPQVYTLPPSREEMTKNQVSLSCAVKGFYPSDIAVEWESNGQPENNYKTTPPVLDSDGSFFLVSKLTVDKSRWQQGNVFSCSVMHEALHNRFTQKSLSLSPGGGGGSGGGGSGGGGSGGGGSNIQMTQSPSSLSASVGDRVTITCKAGQNVNNYLAWYQQKPGKAPKVLIFNANSLQTGVPSRFSGSGSGTDFTLTISSLQPEDFATYYCQQYNSWPTFGGGTKVEIK
light: EIVLTQSPATLSLSPGERATLSCRASSSVSYMHWYQQKPGQAPRPWIYATSNLASGIPARFSGSRSGTDYTLTISSLEPEDFAVYYCQQWSSNTLTFGGGTKVEIKRTVAAPSVFIFPPSDEQLKSGTASVVCLLNNFYPREAKVQWKVDNALQSGNSQESVTEQDSKDSTYSLSSTLTLSKADYEKHKVYACEVTHQGLSSPVTKSFNRGEC
notes: Tri-specific antibody: B7H3 Fabs, central CD137 Fv, terminal PD-1 Fv
B1: a half-maximal effect with CD137 (EC50) was put at 1.78 µg/mL.

B2: Ly2279 (bispecific antibody)
chain 1: not shown
chain 2: QVQLVQSGAEVKKPGASVKVSCKASGYTFTSYVMHWVRQKPGQGLEWIGYINPYNEGTESTDKFKGRATMTSDKSTSTVYMELSSLRSEDTAVYYCASIYYGYEGTYFGVWGQGTLVTVSSASTKGPSVFPLAPSSKSTSGGTAALGCLVKDYFPEPVTVSWNSGALTSGVHTFPAVLQSSGLYSLSSVVTVPSSSLGTQTYICNVNHKPSNTKVDKKVEPKSCGGGGSGGGGSGGGGSGGGGSDIQMTQSPSSVSASVGDRVTITCRASQGIYSWLAWYQQKPGKAPNLLIYTASTLQSGVPSRFSGSGSGTDFTLTISSLQPEDFATYYCQQANIFPLTFGGGTKVEIKGGGGSDKTHTCPPCPAPEAAGPSVFLFPPKPKDTLMISRTPEVTCVVVDVSHEDPEVKFNWYVDGVEVHNAKTKPREEQYNSTYRVVSVLTVLHQDWLNGKEYKCKVSNKALPAPIEKTISKAKGQPREPQVYTLPPSREEMTKNQVSLSCAVKGFYPSDIAVEWESNGQPENNYKTTPPVLDSDGSFFLVSKLTVDKSRWQQGNVFSCSVMHEALHNRFTQKSLSLSPG
light: EIVLTQSPATLSLSPGERATLSCRASSSVSYMHWYQQKPGQAPRPWIYATSNLASGIPARFSGSRSGTDYTLTISSLEPEDFAVYYCQQWSSNTLTFGGGTKVEIKRTVAAPSVFIFPPSDEQLKSGTASVVCLLNNFYPREAKVQWKVDNALQSGNSQESVTEQDSKDSTYSLSSTLTLSKADYEKHKVYACEVTHQGLSSPVTKSFNRGEC
notes: B7H3 Fabs, central CD40 Fv
On to B2, for which the EC50 with CD40 [1] amounted to 1.49 µg/mL.

B3: Ly2434 (bispecific antibody, human IgG1, kappa)
heavy 1: QVQLVQSGAEVKKPGASVKVSCKASGYTFTSYVMHWVRQKPGQGLEWIGYINPYNEGTESTDKFKGRATMTSDKSTSTVYMELSSLRSEDTAVYYCASIYYGYEGTYFGVWGQGTLVTVSSASTKGPSVFPLAPSSKSTSGGTAALGCLVKDYFPEPVTVSWNSGALTSGVHTFPAVLQSSGLYSLSSVVTVPSSSLGTQTYICNVNHKPSNTKVDKKVEPKSCDKTHTCPPCPAPEAAGPSVFLFPPKPKDTLMISRTPEVTCVVVDVSHEDPEVKFNWYVDGVEVHNAKTKPREEQYNSTYRVVSVLTVLHQDWLNGKEYKCKVSNKALPAPIEKTISKAKGQPREPQVYTLPPSREEMTKNQVSLWCLVKGFYPSDIAVEWESNGQPENNYKTTPPVLDSDGSFFLYSKLTVDKSRWQQGNVFSCSVMHEALHNHYTQKSLSLSPGGGGGSGGGGSGGGGSGGGGSEVQLVESGGGLVQPGGSLRLSCAASGFTFTNYGLHWVRQAPGKGLEWVSSISPSGGVTYYRDSVKGRFTISRDNSKNTLYLQMNSLRAEDTAVYYCAKPFLGWGGANWIAHWGQGTLVTVSS
heavy 2: QVQLVQSGAEVKKPGASVKVSCKASGYTFTSYVMHWVRQKPGQGLEWIGYINPYNEGTESTDKFKGRATMTSDKSTSTVYMELSSLRSEDTAVYYCASIYYGYEGTYFGVWGQGTLVTVSSASTKGPSVFPLAPSSKSTSGGTAALGCLVKDYFPEPVTVSWNSGALTSGVHTFPAVLQSSGLYSLSSVVTVPSSSLGTQTYICNVNHKPSNTKVDKKVEPKSCDKTHTCPPCPAPEAAGPSVFLFPPKPKDTLMISRTPEVTCVVVDVSHEDPEVKFNWYVDGVEVHNAKTKPREEQYNSTYRVVSVLTVLHQDWLNGKEYKCKVSNKALPAPIEKTISKAKGQPREPQVYTLPPSREEMTKNQVSLSCAVKGFYPSDIAVEWESNGQPENNYKTTPPVLDSDGSFFLVSKLTVDKSRWQQGNVFSCSVMHEALHNRFTQKSLSLSPGGGGGSGGGGSGGGGSGGGGSDIQMTQSPSSLSASVGDRVTITCLASEDISNDLAWYQQKPGKAPKLLIYFVDRLLDGVPSRFSGSGSGTDFTLTISSLQPEDFATYYCQQSYKYPPTFGQGTKLEIK
light: EIVLTQSPATLSLSPGERATLSCRASSSVSYMHWYQQKPGQAPRPWIYATSNLASGIPARFSGSRSGTDYTLTISSLEPEDFAVYYCQQWSSNTLTFGGGTKVEIKRTVAAPSVFIFPPSDEQLKSGTASVVCLLNNFYPREAKVQWKVDNALQSGNSQESVTEQDSKDSTYSLSSTLTLSKADYEKHKVYACEVTHQGLSSPVTKSFNRGEC
notes: B7H3 Fabs x terminal CD40 Fv (TM559)
On to B3, for which the binding result with CD40 [2] and with B7H3 was “binds” throughout.

B4: Ly1630 (antibody, V domains shown)
VH: QVQLVQSGAEVKKPGASVKVSCKASGYTFAGFEMHWVRQAPGQGLEWMGAIDPKTGGTDYNQKFKDRVTMTRDTSISTAYMELSRLRSDDTAVYYCARDLGYFDVWGQGTLVTVSS
VL: DIQMTQSPSSLSASVGDRVTITCRASQDIRSNLNWYQQKPGGAVKLLIYYTSRLHSGVPSRFSGSGSGTDYTLTISSLQPEDFATYFCQQSEKLPRTFGGGTKVEIR
notes: Parent mAb; also called Anti-CD137 Ly1630; parent anti-CD137 mAb
As to B4, the EC50 with CD137 turned out to be 0.08 µg/mL.

B5: TM383 (antibody, V domains shown)
VH: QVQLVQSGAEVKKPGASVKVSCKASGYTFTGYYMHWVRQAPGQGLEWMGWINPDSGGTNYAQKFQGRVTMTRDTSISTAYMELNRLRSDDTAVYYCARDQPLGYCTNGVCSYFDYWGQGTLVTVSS
VL: DIQMTQSPSSVSASVGDRVTITCRASQGIYSWLAWYQQKPGKAPNLLIYTASTLQSGVPSRFSGSGSGTDFTLTISSLQPEDFATYYCQQANIFPLTFGGGTKVEIK
notes: Parent mAb; also called Anti-CD40 TM383; parent CD40 mAb
Turning to B5, it took 0.48 µg/mL to reach a half-maximal effect with CD40 [1] (EC50).

B6: Ly2281 (bispecific antibody)
chain 1: QVTLKESGPALVKPTQTLTLTCTFSGFSLSTSGTCVSWIRQPPGKALEWLATICWEDSKGYNPSLKSRLTISKDTSKNQAVLTMTNMDPVDTATYYCARREDSGYFWFPYWGQGTLVTVSSASTKGPSVFPLAPSSKSTSGGTAALGCLVKDYFPEPVTVSWNSGALTSGVHTFPAVLQSSGLYSLSSVVTVPSSSLGTQTYICNVNHKPSNTKVDKKVEPKSCGGGGSGGGGSGGGGSGGGGSQVQLVQSGAEVKKPGASVKVSCKASGYTFAGFEMHWVRQAPGQGLEWMGAIDPKTGGTDYNQKFKDRVTMTRDTSISTAYMELSRLRSDDTAVYYCARDLGYFDVWGQGTLVTVSSGGGGSDKTHTCPPCPAPEAAGPSVFLFPPKPKDTLMISRTPEVTCVVVDVSHEDPEVKFNWYVDGVEVHNAKTKPREEQYNSTYRVVSVLTVLHQDWLNGKEYKCKVSNKALPAPIEKTISKAKGQPREPQVYTLPPSREEMTKNQVSLWCLVKGFYPSDIAVEWESNGQPENNYKTTPPVLDSDGSFFLYSKLTVDKSRWQQGNVFSCSVMHEALHNHYTQKSLSLSPG
chain 2: QVTLKESGPALVKPTQTLTLTCTFSGFSLSTSGTCVSWIRQPPGKALEWLATICWEDSKGYNPSLKSRLTISKDTSKNQAVLTMTNMDPVDTATYYCARREDSGYFWFPYWGQGTLVTVSSASTKGPSVFPLAPSSKSTSGGTAALGCLVKDYFPEPVTVSWNSGALTSGVHTFPAVLQSSGLYSLSSVVTVPSSSLGTQTYICNVNHKPSNTKVDKKVEPKSCGGGGSGGGGSGGGGSGGGGSDIQMTQSPSSLSASVGDRVTITCRASQDIRSNLNWYQQKPGGAVKLLIYYTSRLHSGVPSRFSGSGSGTDYTLTISSLQPEDFATYFCQQSEKLPRTFGGGTKVEIRGGGGSDKTHTCPPCPAPEAAGPSVFLFPPKPKDTLMISRTPEVTCVVVDVSHEDPEVKFNWYVDGVEVHNAKTKPREEQYNSTYRVVSVLTVLHQDWLNGKEYKCKVSNKALPAPIEKTISKAKGQPREPQVYTLPPSREEMTKNQVSLSCAVKGFYPSDIAVEWESNGQPENNYKTTPPVLDSDGSFFLVSKLTVDKSRWQQGNVFSCSVMHEALHNRFTQKSLSLSPG
light: NIQMTQSPSSLSASVGDRVTITCKAGQNVNNYLAWYQQKPGKAPKVLIFNANSLQTGVPSRFSGSGSGTDFTLTISSLQPEDFATYYCQQYNSWPTFGGGTKVEIKRTVAAPSVFIFPPSDEQLKSGTASVVCLLNNFYPREAKVQWKVDNALQSGNSQESVTEQDSKDSTYSLSSTLTLSKADYEKHKVYACEVTHQGLSSPVTKSFNRGEC
notes: PD-1 Fabs, central CD137 Fv
In the assay with CD137, B6 came in with an EC50 of 2.56 µg/mL.
